Assay results as given in article PMC5464768, “ER retention is imposed by COPII protein sorting and attenuated by 4-phenylbutyrate” (eLife, 2017).

Experiments:
[1] = target: Sec24d (full-length, wild type) (H. sapiens) (UniProt O94855)
[2] = target: Sec24d (full-length, wild type) (H. sapiens) (UniProt O94855); remark: listed apart in the source

Chain of Sec24d (full-length, wild type) (H. sapiens) (O94855 whole entry): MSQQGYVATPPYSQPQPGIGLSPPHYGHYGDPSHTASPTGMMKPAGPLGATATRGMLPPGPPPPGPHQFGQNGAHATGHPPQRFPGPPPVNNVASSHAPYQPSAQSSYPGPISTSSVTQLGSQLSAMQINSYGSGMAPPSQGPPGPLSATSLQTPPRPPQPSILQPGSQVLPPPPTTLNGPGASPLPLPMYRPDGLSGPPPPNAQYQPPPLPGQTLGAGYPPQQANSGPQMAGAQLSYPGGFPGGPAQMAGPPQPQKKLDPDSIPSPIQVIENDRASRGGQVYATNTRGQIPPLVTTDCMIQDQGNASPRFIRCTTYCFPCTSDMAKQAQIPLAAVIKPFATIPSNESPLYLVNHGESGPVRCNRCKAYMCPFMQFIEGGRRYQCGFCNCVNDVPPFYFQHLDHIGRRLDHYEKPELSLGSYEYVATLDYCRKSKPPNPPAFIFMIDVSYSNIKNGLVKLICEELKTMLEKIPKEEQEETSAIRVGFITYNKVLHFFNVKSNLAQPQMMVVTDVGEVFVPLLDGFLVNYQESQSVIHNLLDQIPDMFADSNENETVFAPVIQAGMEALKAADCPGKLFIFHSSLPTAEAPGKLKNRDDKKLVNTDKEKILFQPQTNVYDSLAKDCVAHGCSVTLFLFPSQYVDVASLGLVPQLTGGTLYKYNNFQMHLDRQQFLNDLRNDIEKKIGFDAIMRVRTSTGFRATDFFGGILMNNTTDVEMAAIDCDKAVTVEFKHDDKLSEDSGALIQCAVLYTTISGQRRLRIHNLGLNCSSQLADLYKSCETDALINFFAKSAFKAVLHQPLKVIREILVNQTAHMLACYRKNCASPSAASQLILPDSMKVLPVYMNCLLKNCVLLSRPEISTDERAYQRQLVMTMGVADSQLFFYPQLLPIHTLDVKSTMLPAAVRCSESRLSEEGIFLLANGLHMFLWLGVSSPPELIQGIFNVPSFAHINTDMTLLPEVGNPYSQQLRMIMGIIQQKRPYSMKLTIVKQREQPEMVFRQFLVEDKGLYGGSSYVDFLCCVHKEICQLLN
Chain of p24β1 (P49020 16-196): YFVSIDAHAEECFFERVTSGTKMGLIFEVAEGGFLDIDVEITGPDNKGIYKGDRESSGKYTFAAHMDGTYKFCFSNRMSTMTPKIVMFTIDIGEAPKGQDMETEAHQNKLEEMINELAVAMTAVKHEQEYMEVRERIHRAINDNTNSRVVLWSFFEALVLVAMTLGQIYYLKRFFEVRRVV

packaging efficiency into COPII vesicles budded with wild-type COPII (Sec23a/24d), amount in vesicle as % of protein present in starting permeabilized cells; CHO-LDLR G544V cells [1] [%]	reduction of the packaging rate into COPII vesicles (Sec23a/24d) budded in the presence of 10 mM 4-PBA [2] [% reduction]	packaging efficiency into COPII vesicles budded with wild-type COPII (Sec23a/24d), amount in vesicle as % of protein present in starting permeabilized cells; wild-type CHO cells [1] [%]	Substance
10.6	50	–	p24β1 (from UniProt P49020 16-196) (natural protein)
8.7	–	10.9	p24α2 (natural protein)
6.4	50	6.4	p24α3 (natural protein)
4.5	50	–	ERGIC-53 (natural protein)
7.7	–	4.6	p24δ1 (natural protein)
